Data: patent US10400230B2, “Protease variants and polynucleotides encoding same” (NOVOZYMES A/S, priority 2014, dated 2019)

Key:
[1] = Determination of binding constants of inhibitor (NNIC) in Model B detergent, Suc-AAPF-pNA read-out; assay type: biochemical; conditions: Ki of variant with the mutation relative to variant without the mutation; for Inhibitor-binding relative Kimutation, inhibitor binding in Model B: <1.0 beneficial
Method: (§1) Purified protease variants are pre-diluted to approximately 0.2 mg/ml in dilution buffer. 40 μl diluted protease is then mixed with 40 μl inhibitor solution (Z-Gly-Ala-NHCH(CH2C6H4pOH)C(OH)(SO3Na)—H, wherein Z is benzyloxycarbonyl) or 40 μl 4-FPBA solution in the well of a 96 well microtiter plate (Nunc F 96-MTP). […] After 10 min mixing of protease and inhibitor at room temperature, 30 μl of the mixture is transferred to a microtiter plate (Nunc U96 PP 0.5 ml) with 270 μl Model B detergent in the wells resulting in inhibitor concentrations of 0-30 μM and 4-FPBA concentrations of 0-6000 μM. Protease, inhibitor and detergent is mixed for 1 hour using magnetic bars for 1 hour at room temperature to reach equilibrium. Then 20 μl is transferred to a microtiter plate (Nunc F 96-MTP). 100 μl substrate solution is added and after 5 sec mixing absorbance at 405 nm is measured every 20 sec for 5 min on a SpectraMax Plus reader. Slope from linear regression of initial increase in absorbance at 405 nm is used for calculation of apparent binding constants.
(§2) It is assumed that protease and inhibitor react according to the equation: E+I ? EI
(§3) Where E is the protease, I is the inhibitor and EI is the protease-inhibitor complex. […] The concentration of enzyme-inhibitor in the detergent solution is then given by:
(§4) where Etot is the total protease concentration ([Etot]=[E]+[EI]), Itot is the total inhibitor concentration ([Itot]=[I]+[EI]), and Ki is the equilibrium binding constant for the reaction. The measured slopes V are given by:
(§5) where V0 is the slope without inhibitor added. To calculate apparent binding constant Ki least square fitting of measured slopes at various inhibitor concentrations to this equation is performed with Ki and V0 as variables.
The Ki for the parent protease and for each variant was calculated as described above
(§6) Having the Ki for each variant, it is possible to calculate the effect of a single mutation, if data are available for at least two variants that differ only by that mutation. In this case, the relative Ki for the mutation is calculated:
(§7) [formula] A lower Ki is desirable, as a satisfactory inhibition can be obtained at a lower inhibitor concentration, so beneficial mutations have a relative Ki<1.0 The following table show such relative Kimutation. Each row show: • a mutation (column 1: “Mutation”) • a protease variant (relative to SEQ ID NO: 2) that comprise the mutation from column 1 (column 2: “Variant with the mutation”) • another protease variant (relative to SEQ ID NO: 2), that differs from the one in column 2 only by not having the mutation in column 1 (column 3: “Variant without the mutation”) • Relative Kimutation for the mutation in column 1, in the context of the variant in column 3, measured in Model B detergent (column 4: “inhibitor binding in Model B”) • Relative Kimutation for the mutation in column 1, in the context of the variant in column 3, measured in Tris buffer at pH 8 (column 5: “inhibitor binding in Tris buffer pH 8”)
Ki were calculated as shown in Example 3. The Improvement Factor (IF) or Relative

[2] = Determination of binding constants of inhibitor in Tris buffer at pH 8; assay type: biochemical; conditions: Ki of variant with the mutation relative to variant without the mutation
Method: as §1, §2, §3, §4, §5, §6, §7

Molecule | Inhibitor-binding relative Kimutation, inhibitor binding in Model B [1] | Inhibitor-binding relative Kimutation, inhibitor binding in Tris buffer pH 8 [2] | Inhibitor-binding relative Kimutation, inhibitor binding in Model B (Table 4b) [1]
K146N, S173P, S175P, F180Y: TY145 protease (SEQ ID NO 3) variant with these substitutions (protein, listed as Bacillus sp.) AVPSTQTPWGIKSIYNDQSITKTTGGSGIKVAVLDTGVYTSHLDLAGSAEQCKDFTQSNPLVDGSCTDRQGHGTHVAGTVLAHGGSNGQGVYGVAPQAKLWAYKVLGDNGSGYSDDIAAAIRHVADEASRTGSKVVINMSLGSSANDSLIASAVDYAYGKGVLIVAAAGNSGPGPNTIGYPGGLVNAVAVAALENVQQNGTYRVADFSSRGNPATAGDYIIQERDIEVSAPGASVESTWYTGGYNTISGTSMATPHVAGLAAKIWSANTSLSHSQLRTELQNRAKVYDIKGGIGAGTGDDYASGFGYPRVK | 0.93 | 0.91 | 
S27K, V162T, S173P, G174K, S175P, F180Y, L184F, Q197K, Q198E, T297P: TY145 protease (SEQ ID NO 3) variant with these substitutions (protein, listed as Bacillus sp.) AVPSTQTPWGIKSIYNDQSITKTTGGKGIKVAVLDTGVYTSHLDLAGSAEQCKDFTQSNPLVDGSCTDRQGHGTHVAGTVLAHGGSNGQGVYGVAPQAKLWAYKVLGDNGSGYSDDIAAAIRHVADEASRTGSKVVINMSLGSSAKDSLIASAVDYAYGKGTLIVAAAGNSGPKPNTIGYPGGFVNAVAVAALENVKENGTYRVADFSSRGNPATAGDYIIQERDIEVSAPGASVESTWYTGGYNTISGTSMATPHVAGLAAKIWSANTSLSHSQLRTELQNRAKVYDIKGGIGAGPGDDYASGFGYPRVK |  |  | 0.17
S27K, S171N, S173P, G174R, S175P, F180Y, Q198E, N199K, R224G, T297P: TY145 protease (SEQ ID NO 3) variant with these substitutions (protein, listed as Bacillus sp.) AVPSTQTPWGIKSIYNDQSITKTTGGKGIKVAVLDTGVYTSHLDLAGSAEQCKDFTQSNPLVDGSCTDRQGHGTHVAGTVLAHGGSNGQGVYGVAPQAKLWAYKVLGDNGSGYSDDIAAAIRHVADEASRTGSKVVINMSLGSSAKDSLIASAVDYAYGKGVLIVAAAGNNGPRPNTIGYPGGLVNAVAVAALENVQEKGTYRVADFSSRGNPATAGDYIIQEGDIEVSAPGASVESTWYTGGYNTISGTSMATPHVAGLAAKIWSANTSLSHSQLRTELQNRAKVYDIKGGIGAGPGDDYASGFGYPRVK | 0.74 |  | 
K146F, S173P, S175P, F180Y: TY145 protease (SEQ ID NO 3) variant with these substitutions (protein, listed as Bacillus sp.) AVPSTQTPWGIKSIYNDQSITKTTGGSGIKVAVLDTGVYTSHLDLAGSAEQCKDFTQSNPLVDGSCTDRQGHGTHVAGTVLAHGGSNGQGVYGVAPQAKLWAYKVLGDNGSGYSDDIAAAIRHVADEASRTGSKVVINMSLGSSAFDSLIASAVDYAYGKGVLIVAAAGNSGPGPNTIGYPGGLVNAVAVAALENVQQNGTYRVADFSSRGNPATAGDYIIQERDIEVSAPGASVESTWYTGGYNTISGTSMATPHVAGLAAKIWSANTSLSHSQLRTELQNRAKVYDIKGGIGAGTGDDYASGFGYPRVK | 0.25 | 0.19 | 
S173P, S175P, F180Y, R224S: TY145 protease (SEQ ID NO 3) variant with these substitutions (protein, listed as Bacillus sp.) AVPSTQTPWGIKSIYNDQSITKTTGGSGIKVAVLDTGVYTSHLDLAGSAEQCKDFTQSNPLVDGSCTDRQGHGTHVAGTVLAHGGSNGQGVYGVAPQAKLWAYKVLGDNGSGYSDDIAAAIRHVADEASRTGSKVVINMSLGSSAKDSLIASAVDYAYGKGVLIVAAAGNSGPGPNTIGYPGGLVNAVAVAALENVQQNGTYRVADFSSRGNPATAGDYIIQESDIEVSAPGASVESTWYTGGYNTISGTSMATPHVAGLAAKIWSANTSLSHSQLRTELQNRAKVYDIKGGIGAGTGDDYASGFGYPRVK | 0.50 |  | 
S173P, S175P, F180Y, R224G: TY145 protease (SEQ ID NO 3) variant with these substitutions (protein, listed as Bacillus sp.) AVPSTQTPWGIKSIYNDQSITKTTGGSGIKVAVLDTGVYTSHLDLAGSAEQCKDFTQSNPLVDGSCTDRQGHGTHVAGTVLAHGGSNGQGVYGVAPQAKLWAYKVLGDNGSGYSDDIAAAIRHVADEASRTGSKVVINMSLGSSAKDSLIASAVDYAYGKGVLIVAAAGNSGPGPNTIGYPGGLVNAVAVAALENVQQNGTYRVADFSSRGNPATAGDYIIQEGDIEVSAPGASVESTWYTGGYNTISGTSMATPHVAGLAAKIWSANTSLSHSQLRTELQNRAKVYDIKGGIGAGTGDDYASGFGYPRVK | 0.47 |  | 
S27K, S171N, S173P, G174R, S175P, F180Y, G182A, L184F, Q198E, N199K, R224G, T297P: TY145 protease (SEQ ID NO 3) variant with these substitutions (protein, listed as Bacillus sp.) AVPSTQTPWGIKSIYNDQSITKTTGGKGIKVAVLDTGVYTSHLDLAGSAEQCKDFTQSNPLVDGSCTDRQGHGTHVAGTVLAHGGSNGQGVYGVAPQAKLWAYKVLGDNGSGYSDDIAAAIRHVADEASRTGSKVVINMSLGSSAKDSLIASAVDYAYGKGVLIVAAAGNNGPRPNTIGYPAGFVNAVAVAALENVQEKGTYRVADFSSRGNPATAGDYIIQEGDIEVSAPGASVESTWYTGGYNTISGTSMATPHVAGLAAKIWSANTSLSHSQLRTELQNRAKVYDIKGGIGAGPGDDYASGFGYPRVK |  |  | 0.69
K146W, S173P, S175P, F180Y: TY145 protease (SEQ ID NO 3) variant with these substitutions (protein, listed as Bacillus sp.) AVPSTQTPWGIKSIYNDQSITKTTGGSGIKVAVLDTGVYTSHLDLAGSAEQCKDFTQSNPLVDGSCTDRQGHGTHVAGTVLAHGGSNGQGVYGVAPQAKLWAYKVLGDNGSGYSDDIAAAIRHVADEASRTGSKVVINMSLGSSAWDSLIASAVDYAYGKGVLIVAAAGNSGPGPNTIGYPGGLVNAVAVAALENVQQNGTYRVADFSSRGNPATAGDYIIQERDIEVSAPGASVESTWYTGGYNTISGTSMATPHVAGLAAKIWSANTSLSHSQLRTELQNRAKVYDIKGGIGAGTGDDYASGFGYPRVK | 0.23 | 0.16 | 
S27K, I121V, S171N, S173P, G174R, S175P, F180Y, Q198E, R224S, T297P: TY145 protease (SEQ ID NO 3) variant with these substitutions (protein, listed as Bacillus sp.) AVPSTQTPWGIKSIYNDQSITKTTGGKGIKVAVLDTGVYTSHLDLAGSAEQCKDFTQSNPLVDGSCTDRQGHGTHVAGTVLAHGGSNGQGVYGVAPQAKLWAYKVLGDNGSGYSDDIAAAVRHVADEASRTGSKVVINMSLGSSAKDSLIASAVDYAYGKGVLIVAAAGNNGPRPNTIGYPGGLVNAVAVAALENVQENGTYRVADFSSRGNPATAGDYIIQESDIEVSAPGASVESTWYTGGYNTISGTSMATPHVAGLAAKIWSANTSLSHSQLRTELQNRAKVYDIKGGIGAGPGDDYASGFGYPRVK | 0.56 |  | 
S27K, S171D, S173P, G174R, S175P, G182A, L184F, Q198E, N199K, R224G, T297P: TY145 protease (SEQ ID NO 3) variant with these substitutions (protein, listed as Bacillus sp.) AVPSTQTPWGIKSIYNDQSITKTTGGKGIKVAVLDTGVYTSHLDLAGSAEQCKDFTQSNPLVDGSCTDRQGHGTHVAGTVLAHGGSNGQGVYGVAPQAKLWAYKVLGDNGSGYSDDIAAAIRHVADEASRTGSKVVINMSLGSSAKDSLIASAVDYAYGKGVLIVAAAGNDGPRPNTIGFPAGFVNAVAVAALENVQEKGTYRVADFSSRGNPATAGDYIIQEGDIEVSAPGASVESTWYTGGYNTISGTSMATPHVAGLAAKIWSANTSLSHSQLRTELQNRAKVYDIKGGIGAGPGDDYASGFGYPRVK |  |  | 0.49
